The target of test [1] is hNaV1.9 IQ domain peptide (human). Description: ITC. On the technique in general: ITC needs no label: the signal is the heat of the interaction.
The target is the same in test [2]. The experiment in a line: ITC. This is another data set of the same source.

Like-named read-outs stand apart in the source and are kept apart here.

Our source for the Kd values is publication PMC12118636.

As a reminder, the Kd is the equilibrium constant for the complex coming apart. A higher Kd goes with a looser complex. For “Human calmodulin (from UniProt P0DP23 1-149) (natural protein)”, the Kd worked out at 37 µM in test [1] and 480 µM in test [2].
